# Literature values in paper PMC3823252.
# Molecular target: KpOmpA (Klebsiella pneumoniae) (UniProt P24017)
# Sequence (P24017 2-344): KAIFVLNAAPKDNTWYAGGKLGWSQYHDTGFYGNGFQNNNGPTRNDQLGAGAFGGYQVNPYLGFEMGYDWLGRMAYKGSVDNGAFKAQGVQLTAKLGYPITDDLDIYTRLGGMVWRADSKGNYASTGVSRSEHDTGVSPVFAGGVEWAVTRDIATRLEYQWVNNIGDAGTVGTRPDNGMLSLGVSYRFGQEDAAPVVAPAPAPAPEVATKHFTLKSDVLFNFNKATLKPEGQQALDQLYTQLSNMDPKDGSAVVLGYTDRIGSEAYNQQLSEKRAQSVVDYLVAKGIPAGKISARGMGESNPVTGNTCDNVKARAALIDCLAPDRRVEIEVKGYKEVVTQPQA
# Sequence of PTX3 (P26022 18-381): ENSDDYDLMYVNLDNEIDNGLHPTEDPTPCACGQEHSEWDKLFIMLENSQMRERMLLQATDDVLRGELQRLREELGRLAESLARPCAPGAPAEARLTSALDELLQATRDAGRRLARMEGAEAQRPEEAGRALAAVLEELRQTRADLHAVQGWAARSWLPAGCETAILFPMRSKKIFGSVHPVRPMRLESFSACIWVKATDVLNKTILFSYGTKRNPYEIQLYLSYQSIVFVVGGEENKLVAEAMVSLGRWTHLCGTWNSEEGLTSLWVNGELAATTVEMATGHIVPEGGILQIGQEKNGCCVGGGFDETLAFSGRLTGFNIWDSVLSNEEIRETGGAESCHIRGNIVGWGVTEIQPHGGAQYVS
substance,measurement,value
PTX3 (from UniProt P26022),Kd,50 nM
